{
  "source": "patent US20240324599A1",
  "about": "“PESTICIDAL ENZYMES FOR USE ON NEMATODES, INSECTS, AND MOLLUSKS” (priority 2023, published 2024)",
  "molecules": {"B1": {"name": "Bacillus pumulis Collagenase B (ColB) (protein, listed as Bacillus pumulis, listed as Bacillus pumilus)", "chain": "IVNGKRVITKKPELLAPAGNLEKLKIAVHYGADAVFIGGQEYGLRSNADNFTIEEIAEGVEFAKKYGAKIYVTTNIFAHNENMDGLEDYLKALGDANVAGIIVADPLIIETCRRVAPNVEVHLSTQQSLSNWKAVQFWKEEGLDRVVLARETSALEIREMKEKVDIEIESFIHGAMCIAYSGRCVLSNHMTARDSNRGGCCQSCRWDYDLYQTDGANAVALYGEEDAPFAMSPKDLKLIESIPKMIEMGIDSLKIEGRMKSIHYVATVVSVYRKVIDAYCADPENFVIQKEWLEELDKCANRDTATAFFEGTPGYEEQMFGEHAKKTTYDFVGLVLNYDEDTQMVTLQQRNFFKKGDEVEFFGPEIENFTHTIETIWDEDGNELDAARHPLQIVKFKLDKKIYPSNMMRKGK", "modifications": "Collagenase B (ColB)"}, "B2": {"name": "Bacillus thuringiensis Lipase (Lip1) (protein, listed as Bacillus thuringiensis)", "chain": "MRLMRRCVALLIVFFIMAPMISTNVRAGVVKELKTGFPDQEVFTPGEWFLGQKPANYDENKPPILFVQGRNGNADSWYGKTVYHDINDMYDYALKAGYQTVFIQLYDAAGKGSASQWDNGKLLAQKLEEIYNHFGKKVNIVAHSKGGIDTQAALVGYGANRFVGNVITLATPHHGSNLADLSYSWWAGWLASILGQKDDGTYSLQMGEMAKFRSTIDNNPAAKLNRYYTVTGTSWGPVFSALSMGGLYLSSYGSNDGLVNECSAKLPYGTHLFTDSRFDHDNIRKGSAVFARIEPYLRTANVPVPALVASSTSSNENIEQLNTTSNQSILGGELPQNQWIEQTVAVDKKAEGIVSILTASSDVEVQMISPKGKVYTNKDSVITTGEGESFFGGATIRTFKFDKMDVGEWKVKMMTKQSKDAYLVVSDYKTGAPFVLQMPTKVKANKSEYKLKKSPVAPEMKGDLSITVRVVNKEGKLVSEFNELQNVNNNTFTGALKNIKQPGVYNVTMDIKGMNKEGKSYSRTIVKSVYVEK", "modifications": "Lipase (Lip1 H192)"}, "B3": {"name": "Bacillus thuringiensis Lipase 1 (protein, listed as Bacillus thuringiensis)", "chain": "YGFVSGVNDVLNPKASNLIKKTDVVAKEKKKTGTLQIVSLGDSLTRGVGDKEGIGYVGRMKEDLQKDYKQKIALTNLAVSGAKMPDLLKQIESNGAQYSIKQADVIVLTIGGNDLFPGWESLGKIDLETYRPDTETFQNEAKKIIEEIRKLNTDSPIFWLGLYNPFEDVEDLKGSSNIVVDWNASLEKLALNDKNVYITPTFDLFQNRGKDLLYSDHFHPNEVGYTYMAERLVQNVVSKLKLEQGGVK"}, "B4": {"name": "Bacillus thuringiensis Lipase 2 (protein, listed as Bacillus thuringiensis)", "chain": "EVVKELGKGFPDTEVFTPGEWFLGQKPANYDENKPPILFVQGRNGNADSWYGKTVYHDINDMYDYALKAGYQTVFIQLYDAAGKGSASQWDNGKLLAQKLEEIYNYFGKKVNIVAHSKGGIDTQAALVEYGANRFVGNVITLATPHHGSNLADLSYSWWAGWLASILGQKDDGTYSLQIGEMAKFRSIIDNNPAAKLNRYYTATGTSWGPTFSALSMGGLYLSSYGSNDGLVNEWSAKLSYGTHLFTDSRFDHDNIRKGSAVFARIEPYLRTTNVGLPALVASSTSSNEDLEQLNTTSNQNILGGELPQNQWIEQSISVDKKAEGIVSVLTASSDVEVQMVSPKGKIYANKDSAITTGEGESFFNRATIRTFKFDKLEVGEWKIKMMAKQSKDAYLVVSDYKDDAPFVLRMPTKVKINKPEYKLKKSPVAPEMKGDLSITVRVVNKEGKLVSEFNELQNVNTNTFTGALKDIKQPGVYNVTMDIKGMNKEGKPYNRTIVKSVYVEK"}, "B5": {"name": "Pseudomonas sp. esterase free enzyme concentrate (SEQ ID NO: 248): free enzyme concentrated in an Amicon Ultra 4K filter unit (protein, listed as Pseudomonas sp.)", "chain": "MTEPLILQPVKPADACVIWLHGLGADRYDFLPVAEALQEILLSTRFVLPQAPTRPVTINGGYAMPSWYDIKAMSPARAIDRDELEASADRIIELIEEQRSSGIDASRIFLAGFSQGGAVVYHTAFLKWQGPLGGVLALSTYAPTFSDELELSASQQRIPVLSLHGQFDNVVQNSMGRTAYEYLKAHGVTVTWQEYPMEHEVLPEEIRDIGTWLSERLR"}, "B6": {"name": "Chitinase C (protein, listed as Bacillus thuringiensis)", "chain": "DSPKQSQKIVGYFPSWGVYGRNYQVADIDASKLTHLNYAFADICWKGKHGNPSTHPDNPNKQTWNCKESGVPLQNKEVPNGTLVLGEPWADVTKSYPGSGTTWEDCDKYARCGNFGELKRLKAKYPHLKTIISVGGWTWSNRFSDMAADEKTRKVFAESTVAFLRAYGFDGVDLDWEYPGVETIPGGSYRPEDKQNFTLLLQDVRNALNKAGAEDGKQYLLTIASGASQRYADHTELKKISQILDWINIMTYDFHGGWEATSNHNAALYKDPNDPAANTNFYVDGAIDVYTNEGVPVDKLVLGVPFYGRGWKSCGKENNGQYQPCKPGSDGKLASKGTWDDYSTGDTGVYDYGDLTANYVNKNGFVRYWNDTAKVPYLYNATTGTFISYDDNESMKYKTDYIKTKGLSGAMFWELSGDCRTSPKYSCSGPKLLDTLVKELLGGPINQKDTEPPTNVKNIIVTNKTSSSVQLSWTASTDNVGVTEYEITAGEEKWSATTNSITIKNLKPNTEYTFSVIAKDASGNKSHPTALTVKTDEANTTPPDGNGTATFSVTSNWGSGYNFSIIIKNNGTIPIKNWKLEFDYSGNLTQVWDSKISSKTNNHYVITNAGWNGEIPPGGSITIGGAGTGNPAELLNAVISEN"}},
  "format_in_all_cases": "in vivo",
  "key": {"[1]": {"tested_on": "soybean cyst nematode (SCN, Heterodera glycines)", "experiment": "Controlled environment soybean seed treatment trial: SCN cysts on roots", "conditions": "for % Comparison to Control: base control = 100%, change in brackets"}, "[2]": {"tested_on": "Diamondback moth (Plutella xylostella)", "experiment": "Diet-surface overlay (DSO) bioassay", "conditions": "Table 44, Lipase 0.14 U/mL diet", "description": "(§1) Diet-surface overlay bioassays are conducted with artificial diet mixes without antibiotics in 1.5 cm^2 cell bioassay trays(s). Artificial diets are commercially available from Southland Products Inc. Diets were prepared by dispersing 0.5 mL of molten diet to each 1.5 cm^2 cell. After solidification, 0.1 mL enzyme treatments were dispersed on top of diet in each cell and the tray was gently rocked in an orbital shaker to spread the liquid uniformly over the diet surface. Trays were placed under clean airflow until the surface of each cell was uniformly dried. One or two 16-cell sections were used per treatment (the number in larvae treated was 16 or 32).\n(§2) One healthy first instar larva was placed into each treatment cell, each 16-cell section was covered with a re-sealable lid and incubated at 27° C. and light-dark period of 16:8 hrs. After 7 days, and according to the species, the number of individuals in the following developmental categories was recorded.\n(§3) Diamondback moth (Plutella xylostella): Dead Larva (lack of movement), Larva Stage I (≤50% relative size), Larva Stage II (100% relative size, full size), Early Pupa (light green color), Late Pupa (light-dark brown color), and Adult.\n(§4) Negative/untreated controls were treated with filtered water and positive controls were treated with lethal doses of Bacillus thuringiensis subsp. Kurstaki (Btk) spores at 1000 ppm."}, "[3]": {"tested_on": "Btk resistant Diamondback moth", "experiment": "Diet-surface overlay (DSO) bioassay", "conditions": "Table 45", "description": "as §1, §2, §3, §4\nHowever, both neutral proteases reduced the number of individuals reaching adult stage."}},
  "data": [
    {"molecule": "B1", "values": [
      {"measurement": "% Comparison to Control", "setting": "[1]; Table 22", "result": "15% (−85%)"},
      {"measurement": "Average cysts per g of root tissue", "setting": "[1]; Table 22, free enzyme seed treatment, soybean 2830E3, base control 470.7", "result": "70.9 cysts per g of root tissue"}
    ]},
    {"molecule": "B2", "values": [
      {"measurement": "Dead Larva", "setting": "[2]; individuals of n = 16 after 7 days, water 0", "result": 0},
      {"measurement": "Larva Stage I", "setting": "[2]; n = 16, water 0", "result": 0},
      {"measurement": "Larva Stage II", "setting": "[2]; n = 16, water 0", "result": 0},
      {"measurement": "Early Pupa", "setting": "[2]; n = 16, water 3", "result": 3},
      {"measurement": "Late Pupa", "setting": "[2]; n = 16, water 3", "result": 13},
      {"measurement": "Adult", "setting": "[2]; n = 16, water 10", "result": 0},
      {"measurement": "Dead Larva", "setting": "[3]; Btk resistant strain, individuals of n = 32 after 7 days, U/mL diet: SEQ 76 1.4, Bc 3.8, Pf 5.2, water 3", "result": 1},
      {"measurement": "Adult", "setting": "[3]; n = 32, doses as E86, water 0", "result": 0},
      {"measurement": "Larva Stage I", "setting": "[3]; n = 32, doses as E86, water 0", "result": 9},
      {"measurement": "Larva Stage II", "setting": "[3]; n = 32, doses as E86, water 0", "result": 12},
      {"measurement": "Early Pupa", "setting": "[3]; n = 32, doses as E86, water 7", "result": 10},
      {"measurement": "Late Pupa", "setting": "[3]; n = 32, doses as E86, water 22", "result": 0}
    ]},
    {"molecule": "B3", "values": [
      {"measurement": "% Comparison to Control", "setting": "[1]; Table 19", "result": "75% (−25%)"},
      {"measurement": "Average cysts per g of root tissue", "setting": "[1]; Table 19, free enzyme seed treatment, soybean 2830E3, base control 442.5", "result": "332.0 cysts per g of root tissue"}
    ]},
    {"molecule": "B4", "values": [
      {"measurement": "% Comparison to Control", "setting": "[1]; Table 20", "result": "57% (−43%)"},
      {"measurement": "Average cysts per g of root tissue", "setting": "[1]; Table 20, free enzyme seed treatment, soybean 2830E3, base control 459.7", "result": "264.3 cysts per g of root tissue"}
    ]},
    {"molecule": "B5", "values": [
      {"measurement": "% Comparison to Control", "setting": "[1]; Table 16", "result": "75% (−25%)"},
      {"measurement": "Average cysts per g of root tissue", "setting": "[1]; Table 16, seed treatment, soybean 2830E3, concentrate = 4× volumetric concentration, base control 244.3", "result": "182.1 cysts per g of root tissue"}
    ]},
    {"molecule": "B6", "values": [
      {"measurement": "% Comparison to Control", "setting": "[1]; Table 18", "result": "78% (−22%)"},
      {"measurement": "Average cysts per g of root tissue", "setting": "[1]; Table 18, free enzyme seed treatment, base control 58.3", "result": "45.7 cysts per g of root tissue"}
    ]}
  ]
}
